Data reported in paper PMC2063913 (The Journal of Cell Biology, 2006).
Several values for one entry are separate records, joined by “and”; a condition that tells them apart may be missing. Equal values may be shown once. Read-outs that look alike come from different tables or passages of the source.

B2: yeast centrin (Cdc31p) (natural protein, S. cerevisiae)
chain: MSKNRSSLQSGPLNSELLEEQKQEIYEAFSLFDMNNDGFLDYHELKVAMKALGFELPKREILDLIDEYDSEGRHLMKYDDFYIVMGEKILKRDPLDEIKRAFQLFDDDHTGKISIKNLRRVAKELGETLTDEELRAMIEEFDLDGDGEINENEFIAICTDS

Legend:
yeast centrin (Cdc31p) [1] = molecular target: B2; experiment: crystal structure
[2] = molecular target: T1, Sfi1p fragment K246-E677 (15-repeat construct) (S. cerevisiae, UniProt Q12369 246-677); experiment: native MS
T1 sequence (looked up): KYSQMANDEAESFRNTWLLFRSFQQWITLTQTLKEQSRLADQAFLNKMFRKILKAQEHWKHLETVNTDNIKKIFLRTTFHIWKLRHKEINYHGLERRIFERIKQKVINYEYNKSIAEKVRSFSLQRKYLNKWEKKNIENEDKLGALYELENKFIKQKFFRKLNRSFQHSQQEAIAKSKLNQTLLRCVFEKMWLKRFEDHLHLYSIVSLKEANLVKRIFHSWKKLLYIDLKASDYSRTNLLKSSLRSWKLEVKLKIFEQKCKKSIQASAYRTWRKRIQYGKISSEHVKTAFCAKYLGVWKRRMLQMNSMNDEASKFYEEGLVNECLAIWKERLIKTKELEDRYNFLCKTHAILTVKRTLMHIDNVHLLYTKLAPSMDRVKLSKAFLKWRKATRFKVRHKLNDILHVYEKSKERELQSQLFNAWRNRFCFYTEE

yeast centrin (Cdc31p) [3] = molecular target: B2; experiment: crystal structure; remark: listed apart in the source

B1: Sfi1p fragment K643-E710 (two repeats; crystal 1 construct) (domain or fragment, S. cerevisiae, UniProt Q12369 643-710, looked up)
chain: KLNDILHVYEKSKERELQSQLFNAWRNRFCFYTEECNIQAISKRNYQLEKMVLKKFRERLLEIVKSEE
B1: binds (yeast centrin (Cdc31p) [1]).

In the case of B2, the “stoichiometry N” value [2] is reported as 15 and 14.

B3: Sfi1p fragment N218-H306 (three repeats; crystal 2 construct) (domain or fragment, S. cerevisiae, UniProt Q12369 218-306, looked up)
chain: NEEANRFANQAKLRVQEAVFYIWSDKTLKYSQMANDEAESFRNTWLLFRSFQQWITLTQTLKEQSRLADQAFLNKMFRKILKAQEHWKH
B3: binds (yeast centrin (Cdc31p) [3]).
